Assay [1] has as its target PCSK9 antigen (SEQ ID NO: 53), human PCSK9 (human) (UniProt Q8NBP7). The experiment in a line: flow cytometry, PCSK9 left bound to CHO-LDLR cells (anti-His-FITC), control IgG 100 nM.
Assay [2] shares this target. The experiment in a line: flow cytometry, PCSK9 left bound to CHO-LDLR cells (anti-His-FITC), control IgG 0.1 nM.
Assay [3] shares this target. Nature of the assay: flow cytometry, PCSK9 left bound to CHO-LDLR cells (anti-His-FITC), control IgG 1000 nM.
The target is the same in assay [4]. The experiment in a line: flow cytometry, PCSK9 left bound to CHO-LDLR cells (anti-His-FITC), control IgG 10 nM.
Assay [5] shares this target. The experiment in a line: flow cytometry, PCSK9 left bound to CHO-LDLR cells (anti-His-FITC), control IgG 1 nM.

Drawing on patent US20220062416A1, this text covers Fluorescence signal value for one substance.

For IgG (antibody), the Fluorescence signal value was found to be 7520 in assay [1]; 7000 in assay [2]; 8920 in assay [3]; 6960 in assay [4]; 6730 in assay [5].
